Patent publication US20120190612A1, “METHODS OF TREATMENT” (CRC FOR ASTHMA AND AIRWAYS LTD., priority 2009, published 2012)

What was measured:
LAM nodule cells = assay: MTT cell viability assay, LAM nodule cells; format: cell-based; conditions: intermediate layer, centre and outer nodule cells, 72 hrs
Description: To determine the function of lamstatin, human primary lymphatic endothelial cells (HMVEC-LLy cells) were exposed to various concentrations of lamstatin and an MTT assay was performed. As a comparison, commercially available tumstatin was used. Specifically, to assess cell viability 4×10^3 HMVEC-LLy cells were seeded per well in 100 μl complete EBM-2 media (with bullet kit, Lonza) and incubated for 2 hrs at 37° C., 5% CO2. After this period lamstatin, tumstatin and respective vehicles (1 nM EDTA, pH 3.0) were prepared in complete EBM-2 as serial dilutions in a separate plate and added. Cells were grown for 24 hrs before MTT (1 mg/mL in PBS) was added. After 6 h of further incubation cells were lysed overnight with 10% SDS/0.01 M HCl and measured the following day in a plate reader at 570 nm.
The inventors isolated lung cells from a LAM patient, which cells originated from the LAM nodules. These cells were termed according to their location within the nodule, as intermediate layer in the nodule, centre cells and outer nodule cells. These cells were then treated with lamstatin or tumstatin and cell viability measured after 72 hrs. The MTT viability assay was performed as described above in Example 1.

[1] = system: lung adenocarcinoma cells (LNM35 AAV-GFP); assay: Mouse ear tumour plug model of tumour-induced lymphangiogenesis; format: in vivo
Description: A mouse ear tumour plug model was utilized in which green fluorescent protein (GFP)-tagged lung adenocarcinoma cells (LNM35 AAV-GFP) were injected between the two layers of skin of the ears of NOD/SCID mice. 1×10^6 tumour cells were embedded in […] growth factor free Matrigel® medium enriched with vehicle (1 nM EDTA, pH3.0) or lamstatin at either 10 μg/mL or 100 μg/mL. Mice were divided into three groups.
Group 1 (n=9): One ear of each mouse injected with tumour cells+10 μg/mL lamstatin; the other ear injected with tumour cells+vehicle control. Group 2 (n=9): One ear of each mouse injected with tumour cells+100 μg/mL lamstatin; the other ear injected with tumour cells+vehicle control. Group 3 (n=3): Each ear injected with Matrigel® only.
Injections were single shots such that at least 25 μL was injected. 12 days after injection were sacrificed by anesthetisation and cervical dislocation. Ears were removed for whole mount staining. Flaps of skin from each ear were carefully separated, fixed and stained for either the lymphatic endothelial cell specific marker LyVe-1 (rabbit polyclonal anti-LyVe-1 antibody detected using anti-rabbit Alexafluor 647) or the vascular endothelial cell specific marker PECAM (CD31 rat anti-mouse antibody clone MEC13.3 (Pharmingen), detected with […]). Tumour cells were visualised by detection of GFP expression. Images of representative regions of ears were obtained using a confocal microscope and LyVe-1 or PECAM staining was quantified.
Using the LyVe-1 whole mount stained mouse ear sections, the inventors further investigated the morphology of lymphatic vessel formation. Specifically confocal images were loaded into Image J software (www.sbweb.nih.gov/ij/), a 5×5 grid overlayed and vessels examined for branching and looping. The functionality of a lymphatic network is based on its maturity and in general it is accepted that a tumour induces a rather immature network formation. Reconnecting vessels (measured as loops) and increased branching (measured as branches) are signs of immature vessels induced by, for example, a tumour (see for example Shayan et al. Growth Factors 25, 417-425, 2007).
Branches were defined as two clearly distinguishable vessels that separate out without rejoining. Loops were defined as small, circular vessel structures in the same focal plane. Branches or loops were counted separately per image and mean values were calculated for each treatment group.

integrins α5 and β1 = target: T1, integrins α5 and β1 (Homo sapiens, UniProt P05556+P08648); assay: Integrins mediating binding of lymphatic endothelial cells (data not shown); format: cell-based; conditions: HMVEC-LLy in vitro, different from HUVECs
T1 construct: endogenous in cells; host or cells: HMVEC-LLy (human primary lymphatic endothelial cells)

HMVEC-LLy cells [2] = assay: Real-time impedance (xCellgenix) cell attachment and proliferation; format: cell-based, human
Description: HMVEC-LLy cells were treated with lamstatin and cell attachment and proliferation were measured in realtime using the xCellgenix system (Roche). This system measures a cell index factor, representing impedance mediated by cells. Gold electrodes on the well bottom measure this impedance and the more cells attach to the bottom the higher the impedance (cell index). This measurement allows for detecting early events after treatment such as detachment (e.g. through cell death) or inhibition of proliferation and reduction of cell number.
A Xcellgenix gold coated microtiter plate was seeded with 5×10^3 cells (HMVEC-LLy) per well and incubated in 100 μL complete EBM-2 for 24 hrs prior to treatment. In fresh media, serial dilutions of lamstatin or vehicle (1 nM EDTA, pH 3.0) were prepared. Cell culture supernatant was removed and replaced by 100 μL fresh serially diluted lamstatin. The plate was locked into the Xcellgenix recorder and a signal of impedance recorded at 5 min intervals for 6 hrs, and subsequently every 60 min.

outer nodule cells (LAM) = assay: Tube formation of LAM outer nodule cells; format: cell-based; conditions: 5 hrs
Description: To assess formation of tubular structures, 48 well plates were coated with 130 μL Matrigel® (BD Bioscience), which was solidified at 37° C. over 45 min. 2×10^4 HMVEC-LLy cells in complete EBM-2 (500 μL) were seeded per well and allowed to attach for 30 min, before lamstatin, tumstatin, CP17 or vehicle was added to the wells. Photos were taken with a Kodak Digital Camera every 2 hrs. Tube formation peaked at 24 hrs, at which time tubular structures were further analysed to determine length (in pixels) and number of tubes per high power field (HPF) area (px^2). The HPF was divided in nine regions of equal size and tubes per region were counted. Mean and SEM were calculated and plotted.
The inventors then analysed tube formation in LAM nodule cells and found only the outer nodule cells responded with pseudo-tube formation. Assay for tube formation was performed as described above in Example 2. Photos were taken at 2, 3, 4, 5 and 24 hrs after seeding. Lamstatin was added directly after seeding to inhibit prior tube formation. Tube formation peaked at 5 hrs and after 24 hrs no tubular structures were observed (both treated and untreated) (data not shown).

HMVEC-LLy cells [3] = assay: Migration towards a VEGF-D gradient (FluoroBlok transwell); format: cell-based, human; conditions: 24 hrs, n=1; VEGFD alone 42.000 RFU
Description: FluoroBlok BioCoat 24-well inserts (BD Bioscience) were seeded with 4×10^4 HMVEC-LLy cells in 750 μL DMEM with 0.1% BSA, 1% antibiotics and 25 mM HEPES and incubated for 1 hr. The bottom well was filled with 500 μL medium (as described above) with or without 10 ng/mL VEGF-D (R&D Systems) as well as various concentrations of lamstatin, tumstatin, CP17 or vehicle. Additionally, top wells were loaded with inhibitors to match the bottom well concentration. According to manufacturer's instructions cells were allowed to migrate for 24 hrs before bottom media was removed. Thereafter the underside of the transwell with the migrated cells was washed twice with HANKS buffer and placed in a 4 μg/mL calcein (HANKS) solution for 90 min at 37° C. Signal was read with a bottom read fluorescence microplate reader at 485/515 nm (excitation/emission).

[4] = lamstatin 10 or 100 μg/mL, CP17 5 or 50 μA, vs vehicle

B1: lamstatin: NC1 domain of the α5 chain of collagen type IV; human amino acid sequence SEQ ID NO:1; recombinant (protein, listed as Homo sapiens)
chain: GFLITRHSQTTDAPQCPQGTLQVYEGFSLLYVQGNKRAHGQDLGTAGSCLRRFSTMPFMFCNINNVCNFASRNDYSYWLSTPEPMPMSMQPLKGQSIQPFISRCAVCEAPAVVIAVHSQTIQIPHCPQGWDSLWIGYSFMMHTSAGAEGSGQALASPGSCLEEFRSAPFIECHGRGTCNYYANSYSFWLATVDVSDMFSKPQSETLKAGDLRTRISRCQVCMKRT
LAM nodule cells
  reduction of cell viability (MTT): effective in reducing cell viability of all nodule cell types at both high (e.g. 10 μg/mL) and low (1.25-2.5 μg/mL) concentrations
[1]; 10 μg/mL
  lymphatic vessel formation around the tumour (visual inspection): reduction in the number of lymphatic vessels and a dilation of lymphatic vessels
[1]; 10 μg/mL or 100 μg/mL, 12 days
  PECAM staining in the vicinity of tumour cells: no obvious reduction
[1]; 100 μg/mL, compared to 10 μg/mL
  lymphatic vessel formation around the tumour (visual inspection): further reduction in lymphatic vessel network density
[1]; 10 and 100 μg/mL
  development of blood vasculature around the tumour: no discernable effect
[1]; both 10 μg/mL and 100 μg/mL, whole mount ears, 12 days
  reduction of mean intensity of LyVe-1 staining compared to vehicle only: approximately 60%
[1]; [4]
  number of branches of lymphatic vessels: significantly reduced
  number of loops of lymphatic vessels: significantly reduced
Integrins α5 and β1
  predominant integrins that mediate the binding of lymphatic endothelial cells: integrins α5 and β1
HMVEC-LLy cells [2]; 10 μg/mL
  time required to reach a threshold cell index of 1, compared with vehicle control: double
HMVEC-LLy cells [2]; after 55 min of treatment, various concentrations
  cell attachment: reduction in cell attachment
Outer nodule cells (LAM)
  tube length: significantly inhibited
  tube number (tubes per square pixel): significantly inhibited
HMVEC-LLy cells [3]
  migration towards a VEGFD gradient: 10000 RFU
